Sequences and labels used below:
T1: GST-Ets1 fusion protein (UniProt P14921 1-441)
T1 construct: Transcription factor Ets1 fused to GST; the only Ets1 cDNA it names is human ETS1 (pSG5-hEts1); also called purified GST-Ets1 fusion; source: recombinant fusion protein, prepared using glutathione-sepharose resin as previously described [40]; held on the resin
T1 sequence (looked up): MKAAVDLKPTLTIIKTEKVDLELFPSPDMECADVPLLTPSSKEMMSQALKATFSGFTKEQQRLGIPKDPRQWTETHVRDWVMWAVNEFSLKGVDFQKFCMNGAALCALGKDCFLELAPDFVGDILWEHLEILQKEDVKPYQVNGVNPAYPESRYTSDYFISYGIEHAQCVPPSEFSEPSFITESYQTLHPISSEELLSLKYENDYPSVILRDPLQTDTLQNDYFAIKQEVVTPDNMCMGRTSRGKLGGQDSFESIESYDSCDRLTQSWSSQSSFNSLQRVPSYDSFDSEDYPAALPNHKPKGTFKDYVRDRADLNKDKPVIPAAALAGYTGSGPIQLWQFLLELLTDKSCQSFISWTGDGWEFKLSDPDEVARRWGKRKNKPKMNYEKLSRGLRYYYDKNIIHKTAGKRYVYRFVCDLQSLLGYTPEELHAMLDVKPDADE

B1: nuclear receptor coactivator NCOA1 (SRC1), GreenLys-labeled (natural protein)
chain: not shown
modifications: Fluorotect GreenLys-labeled (fluorescent lysines built in during translation)
notes: plasmid PCR3.1 SRC1/NCOA1 from O'Malley and Smith; source: in vitro translated (TNT coupled transcription-translation reticulocyte lysate, T7 polymerase) from PCR3.1 SRC1/NCOA1
B2: estrogen receptor α (ERα), GreenLys-labeled (receptor, human, UniProt P03372 1-595, looked up)
chain: MTMTLHTKASGMALLHQIQGNELEPLNRPQLKIPLERPLGEVYLDSSKPAVYNYPEGAAYEFNAAAAANAQVYGQTGLPYGPGSEAAAFGSNGLGGFPPLNSVSPSPLMLLHPPPQLSPFLQPHGQQVPYYLENEPSGYTVREAGPPAFYRPNSDNRRQGGRERLASTNDKGSMAMESAKETRYCAVCNDYASGYHYGVWSCEGCKAFFKRSIQGHNDYMCPATNQCTIDKNRRKSCQACRLRKCYEVGMMKGGIRKDRRGGRMLKHKRQRDDGEGRGEVGSAGDMRAANLWPSPLMIKRSKKNSLALSLTADQMVSALLDAEPPILYSEYDPTRPFSEASMMGLLTNLADRELVHMINWAKRVPGFVDLTLHDQVHLLECAWLEILMIGLVWRSMEHPGKLLFAPNLLLDRNQGKCVEGMVEIFDMLLATSSRFRMMNLQGEEFVCLKSIILLNSGVYTFLSSTLKSLEEKDHIHRVLDKITDTLIHLMAKAGLTLQQQHQRLAQLLLILSHIRHMSNKGMEHLYSMKCKNVVPLYDLLLEMLDAHRLHAPTSRGGASVEETDQSHLATAGSTSSHSLQKYYITGEAEGFPATV
modifications: Fluorotect GreenLys-labeled (fluorescent lysines built in during translation)
notes: also called hERα; fluorescently labeled ERα; source: in vitro translated (TNT coupled transcription-translation reticulocyte lysate, T7 polymerase) from pcDNA3.1 ERα
B3: nuclear receptor coactivator NCOA2 (SRC2), GreenLys-labeled (natural protein)
chain: not shown
modifications: Fluorotect GreenLys-labeled (fluorescent lysines built in during translation)
notes: plasmid PCR3.1 SRC2/NCOA2 from O'Malley and Smith; source: in vitro translated (TNT coupled transcription-translation reticulocyte lysate, T7 polymerase) from PCR3.1 SRC2/NCOA2
B4: nuclear receptor coactivator NCOA3 (AIB/SRC3), GreenLys-labeled (natural protein)
chain: not shown
modifications: Fluorotect GreenLys-labeled (fluorescent lysines built in during translation)
notes: plasmid PCR3.1 SRC3/NCOA3 from O'Malley and Smith; source: in vitro translated (TNT coupled transcription-translation reticulocyte lysate, T7 polymerase) from PCR3.1 SRC3/NCOA3

This experiment deals with T1, GST-Ets1 fusion protein. The experiment is described as follows: pull-down; GST or GST-Ets1 (4 µg/20 µL glutathione-sepharose resin) in 0.5 mL binding buffer (40 mM HEPES pH 7.5, 100 mM NaCl, 5 mM MgCl2, 0.1 mM EDTA, 0.05% Nonidet P-40, 1 mM DTT); GreenLys-labeled ERα (5 µL) 30 min at 4°C, labeled NCOA (5 µL) a further 2 h, alone or in combination; washed 3 times with 0.1% Triton X-100; SDS-PAGE, fluorescence imaging, percent of input bound. Particulars: one partner purified.
Take B1: the “percent of labeled input bound” value worked out at 27%.
Consider B2, for which the “percent of labeled input bound” value came out at 10%.
As for B3, the figure is 9%; as for B4, 26%.

The values are drawn from article PMC3706316, “Transcription Factor Ets1 Cooperates with Estrogen Receptor α to Stimulate Estradiol-Dependent Growth in Breast Cancer Cells and Tumors” (PLoS ONE, 2013).
